The DeepSol protein solubility set

test: soluble on expression in E. coli; label from the status in PepcDB or PDB records

Sequence | soluble on expression in E. coli
MGSDKIHHHHHHENLYFQGMSRKVILTCAVTGNAPFNPKHPSMPITPAQIADACVEAAKAGASVAHIHVRDPKTGGGSRDPVLFKEVVDRVRSSGTDIVLNLTCGLGAFLLPDPEDESKALPESDVVPVAERVKHLEDCLPEIASLDITTGNQVEGKLEFVYLNTTRTLRAMARRFQELGIKPELEVFSPGDILFGKQLIEEGLIDGVPLFQMVLGVLWGAPASTETMIYQRNLIPANAQWAAFGIGRDQMPMMAQAALLGGNVRVGLEDNLYLSRGVFATNGQLVERARTVIEHLGMSVATPDEARDIMGLSRPA | soluble
HVFVVDFNGSIDAKEVSSLREEVSAILSVAKPEDEVFVRLESGGGMVHGYGLASSQLDRIRQHNIPLTVSVDKVAASGGYMMACVANNIISAPFAILGSIGVIAQVPNFNKLLKKHDIDFEQFTAGEFKRTVTMFGENTEKGKEKFIEELEETHVLFKNFVSERRPSLDIVKVATGEHWFGTTALELGLVDSIQTSDD | not soluble
MGHHHHHHSHMNRLPDDYDPYAVEEPSDEEPALSSSEDEVDVLLHGTPDQKRKLIRECLTGESESSSEDEFEKEMEAELNSTMKTMEDKLSSLGTGSSSGNGKVATAPTRYYDDIYFDSDSEDEDRAVQVTKKKKKKQHKIPTNDELLYDPEKDNRDQAWVDAQRRGYHGLGPQRSREQQPVPNSDAVLNCPACMTTLCLDCQRHESYKTQYRAMFVMNCSINKEEVLRYKASENRKKRRVHKKMRSNQEDAAEKAETDVEEIYHPVMCTECSTEVAVYDKDEVFHFFNVLASHS | not soluble
KAPLRDMRFVLNEVFEVSRLWAQLPALAEVVDAETAAAILEEAGKVTAGTIAPLNRPGDEEGCQWNAGAVSTPAGFPEAYRTYAEGGWVGVGGDPAYGGMGMPKVISAQVEELVNSANLSFGLYPMLTAGACLALNAHASDELKDKYLPNMYAGIWAGSMCLTEPHAGTDLGIIRTRAEPQADGSYKISGTKIFITGGEHDLTENIIHLVLAKLPDAPAGPKGISLFLVPKVLVNADGSLGEKNSLGCGSIEHKMGIKASATCVMNFDGATGWLVGEVNKGLAAMFTMMNYERLGVGIQGLATGERSYQSAIEYARERIQSRAPTGPVAKDKAADPIIVHPDVRRMLLTMKALNEGGRAFSSYVAMQLDTAKYSEDAVTRKRAEELVALLTPVAKAFLTDMGLETTIHGQQIFGGHGFIREWGQEQLVRDCRITQIYEGTNGIQALDLVGRKVIGSGGAFSRHFTDEIKAFVASADEALGEFSKPLAAAVENLEELTAWLLDRAKGNPNEIGAASVEYLHVFGYTAYAYMWALMARTALAKQGEDDFYASKLGTARFYFARLLPRIHSLSASVRAGS | not soluble
MAHHHHHHMIVASSLEVRNYGEWVRQVRAERIIVNCPDEMDVKAMCAWMKRDETKEKQAECWKEVKKHMYLLGPIPRHVFDEEAFTERCGAVKFALQSINDVTVKECFPRGGESPWCSEDPSHKPVRVVREIYEGSVILFNAPMCDCLEERTLKRLPSVAE | not soluble
MIREKALEFHKNNFPGNGKIEVIPKVSLESREELTLAYTPGVAEPCKEIARDPGKVYEYTSKGNLVAVVSDGSRILGLGNIGPLAGLPVMEGKALLFKRFGGVDAFPIMIKEQEPNKFIDIVKAIAPTFGGINLEDIASPKCFYILERLREELDIPVFHDDQQGTAAVVLAGLLNALKVVGKKISEITLALFGAGAAGFATLRILTEAGVKPENVRVVELVNGKPRILTSDLDLEKLFPYRGWLLKKTNGENIEGGPQEALKDADVLISFTRPGPGVIKPQWIEKMNEDAIVFPLANPVPEILPEEAKKAGARIVATGRSDYPNQINNLLGFPGIFRGALDVRARTITDSMIIAAAKAIASIVEEPSEENIIPSPLNPIVYAREARAVAEEAMKEGVARTKVKGEWVEEHTIRLIEFYENVIAPINKKRREYSKAITRA | soluble
MAVGGGIGGLLLVGLFLLLGGNPAEIDQVLGGDQTQIESGESTGAGDFDHCQTGADANASDDCRLYYTSFSVNEMWQTLLPAQAGIEYTEPTLTLFKNSTQTGCGFASASTGPFYCPSDQDAYFDLTFFDQMRQFGAENAPLAQMYIVAHEYGHHVQNLEGTLGLSNYNDPGADSNAVKIELQADCYAGIWANHSSEGPDPLLQPITESELDSALLAASAVGDDNIQQRSGGDVNPESWTHGSSQQRKDAFLAGYNTGQMSACDFLGRGVYNDA | not soluble
MAHHHHHHMKTFIGHFNNNALFSRNSFTNKSLRARKYTKNILSLKNLIYSSFFLYSTMNKVIGTHSGRFHTDEILATVMLKFLPEYKDAKIIRTRDQTKLDTCDIVVDVGGVYDHENKRYDHHQKEFEGTLDDKHTIRLSSAGLIYKHYGKEVLRKGFSITDEEKINVLYEKLYTSFIESVDALDNGINQYEGQPKYQINTTIQCRVNRFNPTFLEDDVDENERFMEAAKIVKQEFVHFVTYYSDVWYMAKSIVRESILDRFNFHKSGRVIYLQKYCPYTEHLYDLEQELNIQDEILYCIYSDRYNNFRCTAISKKNEPFVLRLPFPASFRGLKDEQLQTVSKIPGLTFVHYSGFTSAGENIESLVKLVEASLKENNIVY | not soluble
MLSRFSGKVALVTGSSNGIGRAAAVLFAKDGAKVTVTGRNAERLEETRQEILKSGVPESHVLSVATDLAAEKGQDELVNSTIQKFGRLDILVNNAGAAFNDDQGRVGVDQDVSVYDKIMQINMRSVVTLTQKAKEHLVKAKGEIVNVSSIAGTAHAQPGVMYYAMSKSALDQFTRCAAIDLIQYGVRVNSVSPGGVTTGFGEAMGMPSGAFEEMMKFMESRKECIPSGAVAKPIDIANIIAFLADRKLSSYIIGQSIVADGGSTLVLGMNAHNWADLMKQS | not soluble
MRLIAAGEAQNAQQADEDVVQRNIQANRGTNIVRFTAMNDVAGFKQNSARGDQNEDRADRQMQGRQLQEDISNHTNQHHHNTRHQHTAKERHIFAGGQHIRRAAEEHQRRSAQCHSDYVTHSSRQVGVQNWSEDISQKTGKGECGDNPGRLIRRFVGQEHQTIHTHQRQNQTRRWQHQHRTGSCGNRRKGQRQAQQKIGITQHLMGAKQRCTVM | soluble
MGSDKIHHHHHHMRNPIHKRLEKFESWKNITFMLCLCERMYPNFYLFCQMTEQMDKAKIYQNILNLVWEYLTVKNAKINFENQLEKLENIIPDVNNYEFFGVVPALDACEGLSELLHAIIAGETLEKAIKISQLSLQTVITLLETQQDKAFSEAELKQSEEIELELDVQWQIYRTLNAHEERDIRLILDLKNELRESRVSNIGIEIAQ | not soluble
MRALRLLTRQEYQNTVNDLLGLSENLVHLLPEENRVDGFDNNVATNLVTSIRLEAFLTQAEALAAKAVQQNWNALLPCTQQDLEHHHHHH | not soluble
MHDTEKSDSGIVAEKPTNKAGLLAAEWAEPRPGTKGNAEQQRMHRTQGRARMTQSLDRVRTAARLRKKDRFTALFHHINVDTLRAAFFALRRKAAPGVDGMTWEDYEEDLEPRLADLHKRVQRGAYRPQPSRRTYIPKADGKQRPLAIAALEDKIVQGANRHRAQRHLRRRLLWLFLRVSARQRTTAAALEHHHHHH | soluble
MVYRCTGCGQSQPKWSGQCGGCGQWNTLVEEIEAPAVGRRRAGYAGAAEGSMPVSLAEVSREDLSRVTSGLGELDRVLGGGVVPGSAILLGGDPGIGKSTLLLQTLAYLGKSARTLYVTGEESLSQVSLRAHRLGLDGHGIQALAETSLERILDTAERHKPEVLVVDSIQTVYSEALQSAPGSVGQVRECSAQLVRYAKQSSTTVFLVGHVTKEGALAGPRVLEHMVDTVLYFEGDASSRYRVVRSFKNRFGAVNELGVFAMTETGLKEVRNPSAIFLSRGDEDMPGSIVTVTREGSRPLLVEVQALVDESHLQSPRRLVVGMEMNRLAMLLAVLHRHGGVPVAAQDVFVNLVGGVRLTETAGDLAIACAVVSSFRDRPVPGEWVIFGELGLNGEIRPVPNGEERLREAAKHGFKYALVPAKNAPKQGVPGVSIIAARNLREAINALLEHHHHHH | soluble
MNADAPLKSYSGHHSETHKSESKKKKDKKTFEEEDDVENVKRKPAESSDDEVVVVVVKKDQKGKRGKKSKKPKKKQESSDDSSDNSDSSESSDDDKKSKKKKKKSKKDSSDSSDSSDSSDSSDDGKKKKKKKSKKDSSDDSSDSSDSSDSSDSSDDDKKKKKKSKKSKNKGSSSDSSDSSDDSSDDEKPKKKKKKSKKPKKAPKSDEEVTIKIIKKPKKKPEDLERRRHRVKKTEEHEEEKDKEEHHESNDENMEFDTRARGAPSSPKLTRRAKRSESSDDEVELQKTPEIDDNKPSRKDGDHDSDMEESEKSKKSSKKDHNHHHHHCCCGAQNEHEHTHHEEFSKTDKVVNKYHDCAKCQYKCPICT | not soluble
MKEKIPFYNEKEFHYMMKKTKKGTFSGWYIINPENNSVEFSGSFNRQFKLNKPVIPVNTEYVTRKEFNEYKDSNDQRLTKIENKVDKLEIKVDKLEKKVDKLEVKVDKLVETVNAQGEDLNNFKVEVRGTLQSQGETLQLILQTLQGMSKRLDSVEGRLDSMDGRLDSMETRLDKIDPLKLEHHHHHH | not soluble
MLASAILPVVSFAESDPLDVLLKKLEEKGVITKEEAKEVKKVAKKHPHLKVKIRLQPRIDFGDIYKENNDYKSRSDFYFRRVRLEISKEWKNIPFGKKLKINFTLHSDKGERDYDYKKGEKEHHSFDPKVKYAYADWTFVDEFAVRIGKNKIPYSRVSLTSSSRQLLIERPYVTEDAKKWLGDYDSNQIMFHGKVAGGIFRYMLSIWDGSTIESKNKTGGTVKADTSLGDAYAIRLEFSPPGFVEKKKDDTGIGEKNKGDVISVGLNYAKNSDFDITDKNIKNEEATVWGGDIFGRFHLGPGALVAQAEYVKMKYDKLDLEEKGYYIQAGYLIPTPYGKFEPAARYEHFKQEDKKNDVTKHKKDIITLGFNHYIKGHKIKWGYNVLFIDNKEKDEKDQTVHQIQMQFYF | not soluble
AHHHHHHGSLHLKEKLKGTTTVGLVCKEGVVLAADTRASLGNIIYAKNVTKIHKIDEHLAIAGAGDVGDILNLVRLLKAEANLYKSTVGKEMSVKALATLLANILNGSKYFPYLGWFLVGGYDEKPRLFSVDMVGGITEDNYAAAGSGMEFAYSILDSEYREEMSVNDGIKLAVKAINVAIKRDVFTGDGLLVVTITKDGYKEYRGAELEKMLK | not soluble
MGSDKIHHHHHHEDDCATNPEPAGDVTEIKLSAGIQGVATRTPVSTNDNITAPFVASATTGDYTTNAWSSTVTFVASPTPTAALSFSPARYYPVDNSPIYIRGYYPAGTLSGKTVTLAGDGTEDVMLTAQASGTKATAGALSFVFNHLLTQLQFKLVAGAGYPASGVNVTSLVIKQQKTPATLDLNTSSLTYTTKDLTLSGTFPILTAGSTINNYPMVKSGEALTVAVTTSDGVTYPESTISVTTEVGKSHLITLTFTPKEITSSISVTAWQTGGTGSSTLQ | not soluble
DRFSTAVLALSLFQGAYTAEIFRAGLNSIPKGQFEAAQTLGLSPFYTYKDVILPQVLQRTLPPLTNEVVSLIKNSSIVSVMAIFDLTTQARNIVSETAMPFE | not soluble
MEHIEIRVSATGSMSSFHALCSFHQWPINVACSCWLSHCYRIYSLYPPQLVSCSDRLSTSGNTNAGAEFVTE | soluble
MSLEAKKSKAIVFSGVNQIELREVTLKPVSSTDVLVETWWSSISTGTEKMALNGLIPSPPFIFPFIPGYETVGRIVEAGDHVNQGLIGKFAYVAGSFGYEDVNAAFGGASQFIVCPVESLTVLDGIANPQCGIALPLGATALHIVDLAEVKNRKVLVLGQGAVGILAAELAKRFGASLVAVTEPHQRRLDISTSDIKVNPEKQDVSVALAGHEFDVLIDSTGIMSAIETGLRFLKFHGKVIFGGYYQRMNIDYSQAFNKELSFIAARQWAKGDLHRVRELIAAGKINAEKIFTHQCTVDDNLMEAYMQAFSDSDCLKMIIHWKHGNEAGEHFPTCNTANEGHHHHHH | soluble
